Test results from patent publication US20260098093A1.

Molecular target: recombinant human VISTA-Fc protein (R&D #7126-B7) (human) (UniProt Q9H7M9)
Assay: ELISA: plate coated with human VISTA-Fc, LRIG1.HIS titrated (x axis labelled 'Antibody Concentration (log M)')

Chain of recombinant human VISTA-Fc protein (R&D #7126-B7) (human) (Q9H7M9 33-194 limits assumed): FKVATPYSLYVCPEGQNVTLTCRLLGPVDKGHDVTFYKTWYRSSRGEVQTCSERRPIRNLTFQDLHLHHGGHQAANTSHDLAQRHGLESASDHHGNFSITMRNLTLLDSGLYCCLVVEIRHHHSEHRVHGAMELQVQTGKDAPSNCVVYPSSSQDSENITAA

With “recombinant human LRIG1.HIS (from UniProt Q96JA1 35-794) (receptor)” the EC50 (read off the curve) was 9 nM.
